Results from the DeepSol protein solubility set.

Experiment: soluble on expression in E. coli; label from the status in PepcDB or PDB records

Row | Sequence | soluble on expression in E. coli
1 | MPAVAFPVSSPRLLARAVQIAVLAMGALCVGCQSVDYSPPRQDRPPRLVSGLVYWGGDDKEGSRAADKISDLPVYNGEDVWQRVAQRCRLVDGQGMNERIARQRDWLLSNRGFITGASVRASPYLHFIVERLDERNMPLELALLPMIESSYNPMANSPAAAAGLWQFIPSTGRSFNLHQSATYDARRDVVASSKAAMDYLTRLHDQFNNDWLLALAAYNAGEGTVGRAIEANRRRGLPVDYWNLNLPKETQDYVPRLLALSMVVRNPNAYGVKLTPVANTPYFDVVELNHAVDLTQLAATAGVDEGQLLRLNSAFLRKKTFDGPGRLLIPKTQNRVLTTSIARITGESPVTASIPLVTPSAIVKRAAERLPAPAPVAERPVRVAERPPLPKPVQSAQLAENLPSPKTAQPLPVAQQPTAPEALQPAPAAESAPAVEIAQSAPVVEPDPLTNRIQLPRIRDDRSSPRKRDDDEYRSGPRELPTGPRVVVFASDPRQLEHHHHHH | not soluble
2 | MVEVPSFRSNEHFPQLCDKVTVKWDKKRGRFVEAIEDIPIGTVVCVETGITVNVDPQNCYRCLKITENASFAYCKNCEEFYEPDEIACGEFDELGIFKLAAHLVFSYPFADIASLVQSSDPEPPSCAPKALSTQDIEAIFQLTPFPEIGEAFKAPAIQNAIKRIVESLETDENWGRLDQISRTMTFTKALRIMAERSAKNAHTIYSIEQIESQEDNLPMATGLFPISSIFNHSCTPNISGFFVRNTFIFVSQGVRAREELLDSYGVTYHQHTFEQRTNFLASVSGFICHCESCFKMKSLKVLEKPKKYPETIATNASCFTDITSYTENIPRGSKELENLIIAFARRPDSETYTELIFQFWKKFVENAKFRGITYDPYLVRPYVEMTILAWNKEVGCENEEKMSLLIVTHRLLRNCYVDLHPLSELVVKLVNVVANQNADEINRTLEKLKLRARMLWKYSEQSEDL | not soluble
3 | MAEPGGHEGPASTQRAKVCETHTAMVFFVEDRVYKRKKPVDLGFLDYTTRSSRRAVCEREIELNRRFAPDVYLGLGELRTPGEQEAEPLVVMRRMPDDRRLSHLVRTGAPVADDLRAVARHLAAWHSAAPRGPAIAEQGTRDALAARWEASFTQVDVLAAKGPTRDEAGEVERLVRRYLAGRKPLFGLRIEQGRVLDGHGDLLADDVFCLGDGPRILDCLEFDDALRYVDGLDDAAFLAMDLESLGAPESAAFFLAQYGEYSGDPAPPSLWHHYVAYRAFVRAKVSLIQARQGAPGAHATARRLVRMALRHLRASAVGLTLVAGLPGTGKSTLSGALADRLGAVLLSSDRLRKEMAGLSPQQTASADYGEGLYTPEWTARTYAELLDRAAALLALGESVVLDATWIDSAQREAARHTAESAGADLVALHCHVPDDVTAARLSTRAPGASDADLGVAEAMAAEEQPWSGAVGVDTGGSLEAAVGQALAAVRPWGSDQAKVFRRPYMEPDLEHHHHHH | not soluble
4 | MSKNRDPLLANLNAFKSKVKSAPVIAPAKVGQKKTNDTVITIDGNTRKRTASERAQENTLNSAKNPVLVDIKKEAGSNSSNAISLDDDDDDEDFGSSPSKKVRPGSIAAAALQANQTDISKSHDSSKLLWATEYIQKKGKPVLVNELLDYLSMKKDDKVIELLKKLDRIEFDPKKGTFKYLSTYDVHSPSELLKLLRSQVTFKGISCKDLKDGWPQCDETINQLEEDSKILVLRTKKDKTPRYVWYNSGGNLKCIDEEFVKMWENVQLPQFAELPRKLQDLGLKPASVDPATIKRQTKRVEVKKKRQRKGKITNTHMTGILKDYSHRV | soluble
5 | MGHHHHHHSHLTVQFVPSQNAGTLEAKAKPLEKLLSKELGIPVKVSVSTNYNTIVEAMKSKKVDVGFLPPTAYTLAHDQKAADLLLQAQRFGVKEDGSASKELVDSYKSEILVKKDSKIKSLKDLKGKKIALQDVTSTAGYTFPLAMLKNEAGINATKDMKIVNVKGHDQAVISLLNGDVDAAAVFNDARNTVKKDQPNVFKDTRILKLTQAIPNDTISVRPDMDKDFQEKLKKAFIDIAKSKEGHKIISEVYSH | not soluble
6 | MLWTENITLRFGGVTALDNVSVEVRRGEILGIIGPNGAGKTSLLNVITGVYKPQRGRVYFKGRDITGLKPHQRITLGLSRTFQHSELFHSMTVLENIMVRLHPWTRGSILEKALWAFRAKRWEVEARERAEHVIDLLDLHEHRHSPIGALPPGIQKKVDLAGALAQNPEVVLMDEPMAGLSKEEKEDIVRAIIETSETMHTTMVLIEHDMEVVTDVCDRVVVMDYGKVIFEGPPHEAVADERVRKAYLGE | soluble
7 | MGTETVSFKWEGKKVAQVNGVTAEKVWSVFSDFCNVQEWFPSVDTCYRVQGTDGVPGLIRYCSTTKTKEEGSRWAKEKLVKIDPIGRCLSYEILENNVGFRSYVATVQVTPVDGEDQVSRIEWSFVADPVDGWKKEDLESYVDFCLQHMANKMELNL | soluble
8 | MGSDKIHHHHHHMIKEFNATVRYLESVLESEIDEREFLRISGYSVPMFSRLFSILTDMSLSEYVRLRKLTRAAMDIREGQAKIIDIAFKYGYESSDSFAFAFKQFHQISPSQVRKGLPFKVLLPLQLSLTIQGGKEMDVRIEKKAGFTVAGLLRTAISNEVCPQVWEDLFKNHTYEELAALGSGQSFGVCTLAQADETINYMAAYDVTDSEKATKLGLELLDVHEADYAIFTLIGPVPQSIHAGWRYALETFFPEHGYRHSGAPDFEYYFEGDMSSPDYQMELWIPIVKA | not soluble
9 | MGSDKIHHHHHHMQYNFKVEAFEGPLDLLLHLIHRYEIDIYNIPVAEITEQYLSYVHTMKELQLDVASEYLVMAATLLQIKSKMLLPKHEEDVLDNGDDFIDDPRQELMERLIEYKKYKQVATELKEREQERAQLYTRPPIDFTSLQQEEETSLPLDVTLYDMLAAFQKLMRRKKAKKPVTTRITRQEIPIEQRMTDILKQLEIQGGRQSFYDLFVDDEREIMVVTFLAVLELMKNQQIVIEQEHNFDEIFVSSYTKSA | not soluble
10 | MGSDKIHHHHHHMAKDIHSKAGTTLPPYFNIDPDAAMAELDQPTDTARFAEIAEGCARGRADLASRGLNEEGSKNLRLFSTWEITRYLIPVAQAHFRRVLKANPDLPQGRSETEGGAKWFTLDEVLRLRAFFAAQGSKAKNYLPYRPEGLPAKLVAVANFKGGVGKTSTAAHLAMSAALDGYKVLVIDLDSQGSMTSIFGGKIEDEWQTAFPLLARHYGEHLRVENQRRLDRGDAPQPLDESLTAAMEMTAKDVIQPTHWPNIDLIGAQLNLYWAEFQIPVWRMAARSWKLWDALTDRLEADGVLDQYDVVFIDTPPALGYLTINGLSAADILLVPMGASFLEFDSTGRFFDMLHSTFASIEEGENLAARALGRPEIGFEWDAVRAVITRYDGAQQGELAGLVQAYMGPTLSPHRQDFTALIGQAGEQVNGIYEADYRDFNRETYARGRETFDETYAAFKRLLNGVWRREELAVQEERAAS | not soluble
11 | MRFERFVGIDPSLRTGFVALSPFGEVIEAKEIEKEGDDPARMSKLIQVVVDSVHDTDFVAIEGFGYASQRGFLLGGIGWGMRMELYRRGIPYIDVAPSLLKKFAGAKGNANKEKVVLEVYKRWGFESDSNNVIDAFVLAQIARAAKTETKLIQAQKEVLNKLFK | not soluble
12 | MTHIIIDGDACPVVDSIIDLTTETGIFVTIIRSFSHFSNQLYPPHVSTLYVDDGPDAVDYKIVQLSTKDDIVVTQDYGLASLLVDKVLIVMHHNGKIYNSKNIQQLLDKRYINAQIRKQGGRHKGPPPFTKQDQKVFEQSLLKVIHRIKELDLEHHHHHH | soluble
13 | MNRKTGTTTVGIKVKDGVILAADTQASLDHMVETLNIRKIIPITDRIAITTAGSVGDVQMIARILEAEARYYYFAWGRPMTTKAMANLLSNILNENKWFPYLVQIIIGGYVDEPTIANLDPYGGLIFDNYTATGSGTPFAIAILEEGYKENLGIEEAKELAIKAIKAAGSRDVYTGSKKVQVVTITKEGMQEEFIKL | soluble
14 | MAHHHHHHMYYIYFENVKDEKEKKECEEFIYQIYMMENIKKDAILKLKNEKNENLYLLYLYYKYYYMNDKENVLNEIKQLNTSSCNANILKSRIFFDNDLLDECFDLLENGTIEIKAAKIFFLLNINRQDIVNEIIKDFLHMNEEIPIIKIVLAIYYLFNDNNKESFLIFDDLESLYGSMINDHSNIILNGKAVASILNYEFNDAKEFLKNQINNGDILYNLITCSLYLYELDEANEYLTKLYDNYSSHDSLKVLKKIDDEVDNFVSEF | not soluble
15 | MDEQAVSTSMKTVYIRIYTSVLYTSYTKPGNWSAVDRSAWSVSCSNVYADDDAKYGAHLAIDGEINTTWFTWGVANAGECWWNTVLDRPVTLTGFSVTKQSAYGSGYNLRSAEIKVRKEGETEWVTYPRVLTFRNFKGADPQYAAIEPPIPNVKEFRINCLTPDNYTGFAEINLYVKQLEHHHHHH | soluble
